Experimental findings from patent publication US20190100587A1 (COVAGEN, published 2019) are described below.

Substitutions are numbered along the chain they refer to. Names may count otherwise. Where two headings read alike, the source gives them in different places.

Assay [1] addresses T1, His-tagged human FcγRI (R&D, carrier-free formulation) (human, UniProt P12314 16-288).
T1 construct: also called CD64; human FcγR1
Kind of assay: AlphaScreen competition on His-tagged FcγRI; competitor biotinylated B21M LALA IgG1. On the technique in general: Alpha assays give light when donor and acceptor beads are brought close together.

The target in assay [2] is T1, His-tagged human FcγRI (R&D, …). In words: AlphaScreen competition on His-tagged FcγRI.
The target in assay [3] is T2, human recombinant FcγRI (Sino Biological) (human, UniProt P12314 16-288, limits assumed).
T2 construct: Amine-coupled to a BIAcore CM5 chip (1500 RU); also called CD64
Kind of assay: SPR (BIAcore), FcγRI on chip, 1:1 Langmuir model. Background: SPR reads the build-up and loss of mass on a sensor chip optically.

The target of assay [4] is T2, human recombinant FcγRI (Sino …). In words: SPR (BIAcore), FcγRI on chip, kinetic (koff/kon).
Assay [5] has the same target. Kind of assay: SPR (BIAcore), FcγRI on chip, steady-state model.
Assay [6] concerns the target T1, His-tagged human FcγRI (R&D, …). In words: AlphaScreen competition on His-tagged FcγRI; competitor biotinylated B21M LALA IgG1. The source holds these as a separate data set.
In assay [7] the target is T3, human recombinant FcγRIIIA (158F; R&D Systems) (human, UniProt P08637 17-208).
T3 construct: Amine-coupled to a BIAcore CM5 chip (1400 RU); also called CD16A
In words: SPR (BIAcore), human FcγRIIIA (158F) amine-coupled on a CM5 chip, antibody injected.

Assay [8] has as its target T4, human CD3 on CD3+ Jurkat cells (human).
T4 construct: whole, on cells
In words: flow cytometry on CD3+ Jurkat cells, bound antibody detected with anti-human IgG-Alexa488. (In general: Flow cytometry measures light scatter and fluorescence of single cells or particles in a stream.)

Assay [9] concerns the target T1, His-tagged human FcγRI (R&D, …). Kind of assay: AlphaScreen competition assay; titrated antibody competes with biotinylated B21M LALA IgG1 for His-tagged human FcγRI.
The target in assay [10] is T3, human recombinant FcγRIIIA (158F; R&D …). Kind of assay: SPR (BIAcore), FcγRIIIA 158F on chip, 1:1 Langmuir model.
The target is the same in assay [11]. In words: SPR (BIAcore), FcγRIIIA 158F on chip, kinetic (koff/kon).
For assay [12] the target is unchanged. Kind of assay: SPR (BIAcore), FcγRIIIA 158F on chip, steady-state model.
For assay [13], the target named is T5, His-tagged human FcγRIIB (R&D, carrier-free formulation) (human, UniProt P31994 46-217, limits assumed).
T5 construct: also called CD32B
T5 sequence (looked up): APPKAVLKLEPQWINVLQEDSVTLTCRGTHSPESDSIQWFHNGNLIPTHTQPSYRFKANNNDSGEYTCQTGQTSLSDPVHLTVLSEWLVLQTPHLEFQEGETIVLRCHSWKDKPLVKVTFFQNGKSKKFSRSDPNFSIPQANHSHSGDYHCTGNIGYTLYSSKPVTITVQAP
Kind of assay: AlphaScreen competition assay; titrated antibody competes with biotinylated B21M IgG1 for His-tagged human FcγRIIB.

Assay [14] has as its target T1, His-tagged human FcγRI (R&D, …). Kind of assay: AlphaScreen competition assay; titrated antibody competes with biotinylated B21M LALA IgG1 for His-tagged human FcγRI. This is another data set of the same source.

B1: Anti-PD1 mAb DANAPA IgG1 (antibody)
heavy: QVQLQQSGAELVKPGASVKMSCKAFGYTFTTYPIEWMKQNHGKSLEWIGNFHPYNDDTKYNEKFKGKAKLTVEKSSTTVYLELSRLTSDDSAVYYCARENYGSHGGFVYWGQGTLVTVSAASTKGPSVFPLAPSSKSTSGGTAALGCLVKDYFPEPVTVSWNSGALTSGVHTFPAVLQSSGLYSLSSVVTVPSSSLGTQTYICNVNHKPSNTKVDKKVEPKSCDKTHTCPPCPAPELLGGPSVFLFPPKPKDTLMISRTPEVTCVVVAVSHEDPEVKFNWYVDGVEVHNAKTKPREEQYASTYRVVSVLTVLHQDWLNGKEYKCKVSNKALAAPIEKTISKAKGQPREPQVYTLPPSREEMTKNQVSLTCLVKGFYPSDIAVEWESNGQPENNYKTTPPVLDSDGSFFLYSKLTVDKSRWQQGNVFSCSVMHEALHNHYTQKSLSLSPGK
light: ENVLTQSPAIMSASPGEKVTMTCRASSSVISSYLHWYQQKSGASPKLWIYSTSNLASGVPDRFSGSGSGTSYSLTISSVEAEDAATYYCQQYNGYPLTFGAGTKLEIKRTVAAPSVFIFPPSDEQLKSGTASVVCLLNNFYPREAKVQWKVDNALQSGNSQESVTEQDSKDSTYSLSSTLTLSKADYEKHKVYACEVTHQGLSSPVTKSFNRGEC
notes: DANAPA IgG1 format; also called anti-PD1 antibody; PD-1 specific antibody
Take B1: the IC50 (in general, the concentration needed to halve the response being measured) in [1] was at least 600 nM.

B2: mAb1 DAPA IgG1 (antibody)
heavy: not shown
light: QVVLTQSPAIMSAFPGEKVTMTCSASSSVSYMNWYQQKSGTSPKRWIYDSSKLASGVPARFSGSGSGTSYSLTISSMETEDAATYYCQQWSRNPPTFGGGTKLQITRTVAAPSVFIFPPSDEQLKSGTASVVCLLNNFYPREAKVQWKVDNALQSGNSQESVTEQDSKDSTYSLSSTLTLSKADYEKHKVYACEVTHQGLSSPVTKSFNRGEC
Turning to B2, in [2], the “fold stronger binding than mAb1 DANAPA IgG1” value is over 37 fold. In [3], the koff (usually the first-order rate constant of dissociation) worked out at 0.0595 s⁻¹ and the kon (usually the rate constant with which the complex forms) came to 103000 M⁻¹ s⁻¹. The Kd (as a rule, the free concentration of one partner at which half of the binding sites on the other are occupied at equilibrium, for simple one-to-one binding) in assay [4] was 575 nM. Also, in assay [5], the Kd was determined as 1190 nM. In assay [6], the IC50 was 17.7 nM and the “IC50 relative to IgG1” value stood at 7.8 fold. For the same molecule, in assay [7], the binding result was “no binding (tested: 2000 nM)”. For the same molecule, the EC50 (read off the curve) (commonly the midpoint of the concentration-response curve) in [8] is about 0.1 nM.

B3: mAb1 N297A IgG1 (antibody)
heavy: not shown
light: B2 light
notes: mAb1 with Fc mutation N297A (EU numbering)
With B3, the “fold stronger binding than mAb1 DANAPA IgG1” value in assay [2] is over 37 fold. In [3], the koff was found to be 0.112 s⁻¹ and the kon amounted to 152000 M⁻¹ s⁻¹. Further, the Kd in [4] was 737 nM. The Kd in assay [5] came to 1510 nM. For the same molecule, in assay [6], the IC50 was 23.9 nM and the “IC50 relative to IgG1” value was determined as 10.5 fold. For the same molecule, in assay [7], the binding result was “no binding (tested: 2000 nM)”. Also, in [8], the “EC50 (read off the curve)” value is about 0.1 nM.

B4: mAb1 DNNDPG IgG1 (antibody)
heavy: QVQLQQSGAELARPGASVKMSCKASGYTFTRSTMHWVKQRPGQGLEWIGYINPSSAYTNYNQKFKDKATLTADKSSSTAYMQLSSLTSEDSAVYYCASPQVHYDYNGFPYWGQGTLVTVSAASTKGPSVFPLAPSSKSTSGGTAALGCLVKDYFPEPVTVSWNSGALTSGVHTFPAVLQSSGLYSLSSVVTVPSSSLGTQTYICNVNHKPSNTKVDKKVEPKSCDKTHTCPPCPAPELLGGPSVFLFPPKPKDTLMISRTPEVTCVVVNVSHEDPEVKFNWYVDGVEVHNAKTKPREEQYDSTYRVVSVLTVLHQDWLNGKEYKCKVSNKALGAPIEKTISKAKGQPREPQVYTLPPSREEMTKNQVSLTCLVKGFYPSDIAVEWESNGQPENNYKTTPPVLDSDGSFFLYSKLTVDKSRWQQGNVFSCSVMHEALHNHYTQKSLSLSPGK
light: B2 light
notes: mAb1 with D265N, N297D, P329G (EU numbering)
For B4, the binding result in assay [9] is “binds”.

B5: mAb1 DENQPS IgG1 (antibody)
heavy: B4 heavy with N269E, D301Q, G333S
light: B2 light
notes: mAb1 with D265E, N297Q, P329S (EU numbering)
On to B5, for which the binding result in assay [9] was “binds”.

B6: mAb1 LALA IgG1 (antibody)
heavy: not shown
light: B2 light
notes: mAb1 with Fc mutations L234A, L235A (EU numbering)
Turning to B6, in assay [2], the “fold stronger binding than mAb1 DANAPA IgG1” value was over 37 fold. The Kd in [5] was determined as 1550 nM. In assay [10], the koff was 0.111 s⁻¹ and the kon was found to be 14200 M⁻¹ s⁻¹. The Kd in assay [11] turned out to be 7780 nM. Also, the Kd in [12] was found to be 13800 nM. In addition, in [6], the IC50 turned out to be 27.1 nM and the “IC50 relative to IgG1” value was 11.9 fold. Besides, the “EC50 (read off the curve)” value in [8] is about 0.1 nM. In addition, the binding result in assay [13] is recorded as “binds”.

B7: mAb2 G1 C-LC DANAPA IgG1 (bispecific antibody)
heavy: EVQLVESGGGLVQPGGSLKLSCAASGFTFNTYAMNWVRQAPGKGLEWVARIRSKYNNYATYYADSVKDRFTISRDDSKNTAYLQMNSLKTEDTAVYYCVRHGNFGDSYVSWFAYWGQGTLVTVSSASTKGPSVFPLAPSSKSTSGGTAALGCLVKDYFPEPVTVSWNSGALTSGVHTFPAVLQSSGLYSLSSVVTVPSSSLGTQTYICNVNHKPSNTKVDKKVEPKSCDKTHTCPPCPAPELLGGPSVFLFPPKPKDTLMISRTPEVTCVVVAVSHEDPEVKFNWYVDGVEVHNAKTKPREEQYASTYRVVSVLTVLHQDWLNGKEYKCKVSNKALAAPIEKTISKAKGQPREPQVYTLPPSREEMTKNQVSLTCLVKGFYPSDIAVEWESNGQPENNYKTTPPVLDSDGSFFLYSKLTVDKSRWQQGNVFSCSVMHEALHNHYTQKSLSLSPGK
light: not shown
notes: also called CD3/CD33 bispecific FynomAb with Fynomer G1; FynomAb with the DANAPA IgG Fc
Turning to B7, the half-inhibitory concentration (IC50) in assay [1] was determined as 206 nM.

B8: mAb2 DANAPA IgG1 (antibody)
heavy: B7 heavy
light: QTVVTQEPSLTVSPGGTVTLTCRSSTGAVTTSNYANWVQQKPGQAPRGLIGGTNKRAPGTPARFSGSLLGGKAALTLSGVQPEDEAEYYCALWYSNLWVFGGGTKLTVLGQPKAAPSVTLFPPSSEELQANKATLVCLISDFYPGAVTVAWKADSSPVKAGVETTTPSKQSNNKYAASSYLSLTPEQWKSHRSYSCQVTHEGSTVEKTVAPTECS
notes: Humanized anti-CD3 antibody in DANAPA IgG1 format; also called anti-CD3 antibody mAb2; CD3-specific antibody mAb2
B8: the half-inhibitory concentration (IC50) in assay [1] was at least 600 nM.

B9: mAb2 D5 C-LC DANAPA IgG1 (bispecific antibody)
heavy: B7 heavy
light: not shown
notes: also called CD3/CD33 bispecific FynomAb with Fynomer D5; FynomAb with the DANAPA IgG Fc
In assay [1], B9 registered an IC50 of 800 nM. The “IC50 (read off the curve)” value in assay [14] was about 200 nM.
